Legend:
[1] = target: T1, disheveled-3 (Dvl-3) (human, UniProt Q92997 1-716, limits assumed); test: co-IP, BxPC3 lysate
T1 construct: Endogenous protein in cell lysate
T1 sequence (looked up): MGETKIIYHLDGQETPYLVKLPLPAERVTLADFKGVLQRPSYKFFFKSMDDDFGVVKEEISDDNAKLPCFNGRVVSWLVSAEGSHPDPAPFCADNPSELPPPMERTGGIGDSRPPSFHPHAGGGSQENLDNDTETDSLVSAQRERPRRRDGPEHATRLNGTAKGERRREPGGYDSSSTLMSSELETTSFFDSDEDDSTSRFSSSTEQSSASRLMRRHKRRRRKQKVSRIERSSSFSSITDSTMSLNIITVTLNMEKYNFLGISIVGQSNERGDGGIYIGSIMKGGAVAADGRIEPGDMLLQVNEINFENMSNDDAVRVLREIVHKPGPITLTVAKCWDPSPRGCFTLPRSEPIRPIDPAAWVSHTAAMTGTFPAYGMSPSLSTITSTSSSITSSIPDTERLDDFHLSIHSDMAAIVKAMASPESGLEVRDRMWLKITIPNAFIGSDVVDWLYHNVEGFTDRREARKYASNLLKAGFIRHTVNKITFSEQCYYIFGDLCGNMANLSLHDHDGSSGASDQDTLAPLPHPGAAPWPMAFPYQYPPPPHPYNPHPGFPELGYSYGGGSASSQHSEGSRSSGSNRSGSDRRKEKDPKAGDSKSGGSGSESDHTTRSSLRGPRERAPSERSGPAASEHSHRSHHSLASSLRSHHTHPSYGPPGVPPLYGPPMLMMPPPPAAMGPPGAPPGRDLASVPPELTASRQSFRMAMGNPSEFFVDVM

[2] = target: T2, disheveled-1 (Dvl-1) (human, UniProt O14640 1-695, limits assumed); test: co-IP, BxPC3 lysate
T2 construct: Endogenous protein in cell lysate
T2 sequence (looked up): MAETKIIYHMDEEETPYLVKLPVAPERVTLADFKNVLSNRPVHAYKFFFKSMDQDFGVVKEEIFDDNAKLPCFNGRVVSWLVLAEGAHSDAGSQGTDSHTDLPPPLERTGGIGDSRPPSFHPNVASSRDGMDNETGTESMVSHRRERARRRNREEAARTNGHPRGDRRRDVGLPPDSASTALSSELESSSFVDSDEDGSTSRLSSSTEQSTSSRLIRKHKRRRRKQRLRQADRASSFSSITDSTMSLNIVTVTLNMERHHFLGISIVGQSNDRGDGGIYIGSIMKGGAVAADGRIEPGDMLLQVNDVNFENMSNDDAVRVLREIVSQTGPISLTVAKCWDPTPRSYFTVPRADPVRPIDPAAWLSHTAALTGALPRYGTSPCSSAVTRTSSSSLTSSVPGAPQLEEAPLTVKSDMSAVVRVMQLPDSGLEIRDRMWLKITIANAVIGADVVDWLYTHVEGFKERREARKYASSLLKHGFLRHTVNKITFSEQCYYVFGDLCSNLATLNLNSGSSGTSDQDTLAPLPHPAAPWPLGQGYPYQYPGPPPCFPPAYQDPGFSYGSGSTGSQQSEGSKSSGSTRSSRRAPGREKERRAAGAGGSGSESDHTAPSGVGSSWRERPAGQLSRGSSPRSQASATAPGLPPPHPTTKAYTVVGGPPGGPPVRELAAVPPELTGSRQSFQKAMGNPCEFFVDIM

[3] = target: T3, β-catenin (human, UniProt P35222 2-781); test: co-IP with β-catenin antibody, anti-ATDC western blot, BxPC3 lysate
T3 construct: Endogenous protein in cell lysate; also called beta-catenin
T3 sequence (looked up): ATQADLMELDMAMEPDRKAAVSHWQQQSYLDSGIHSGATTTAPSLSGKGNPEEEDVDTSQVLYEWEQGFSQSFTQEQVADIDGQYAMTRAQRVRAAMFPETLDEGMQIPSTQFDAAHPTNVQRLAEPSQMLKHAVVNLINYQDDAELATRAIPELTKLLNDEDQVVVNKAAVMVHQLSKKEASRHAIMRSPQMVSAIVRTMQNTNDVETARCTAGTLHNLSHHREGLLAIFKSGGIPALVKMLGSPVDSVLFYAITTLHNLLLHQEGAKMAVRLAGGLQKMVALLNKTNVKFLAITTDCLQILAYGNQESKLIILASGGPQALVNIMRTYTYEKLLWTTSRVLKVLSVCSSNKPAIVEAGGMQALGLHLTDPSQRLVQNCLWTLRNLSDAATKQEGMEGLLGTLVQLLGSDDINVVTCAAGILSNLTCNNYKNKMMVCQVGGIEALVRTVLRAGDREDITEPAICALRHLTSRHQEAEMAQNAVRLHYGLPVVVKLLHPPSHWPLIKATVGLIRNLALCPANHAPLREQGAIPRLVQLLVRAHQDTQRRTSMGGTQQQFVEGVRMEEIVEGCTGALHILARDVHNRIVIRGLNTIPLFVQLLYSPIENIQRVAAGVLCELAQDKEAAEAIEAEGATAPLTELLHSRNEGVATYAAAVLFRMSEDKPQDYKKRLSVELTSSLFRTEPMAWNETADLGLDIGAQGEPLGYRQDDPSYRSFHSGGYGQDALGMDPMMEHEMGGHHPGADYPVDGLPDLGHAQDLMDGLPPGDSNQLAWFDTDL
Procedure: HEK 293 cells with or without stable transfection of ATDC and BxPC-3 cells were lysed by sonicating for 5 sec in 1 ml of detergent free lysis buffer (PBS, 5 mM EDTA, 0.02% sodium azide, 10 mM iodoacetamide, 1 mM PMSF and 2 μg leupeptin) at 4° C. […] Antibody conjugated beads were prepared by combining 1 μg of polyclonal antibodies with 30 μl of a 50% protein A-Sepharose bead slurry in 0.5 ml of ice-cold PBS for 1 hr at 4° C. in a tube rotator and then were washed two times with 1 ml of lysis buffer. The antibodies used for co-immunoprecipitation were: Dvl-2, β-catenin (Cell Signaling Technology, Beverly, Mass.), axin, and GSK3β (Upstate, Temecula, Calif.). Cell lysates (500 μg) was incubated with the prepared beads and 10 μl of 10% BSA overnight at 4° C. The beads were washed four times with washing buffer (50 mM Tris-Hcl [pH 7.4], 300 mM NaCl, 5 mM EDTA, 0.02% sodium azide, 0.1% Triton X-100) and one time with ice-cold PBS. […] Images were visualized using an ECL detection system.
To ascertain the mechanism by which ATDC stabilizes β-catenin, it was first examined whether ATDC interacts with the components of the multi-protein complex that regulates β-catenin stability.

Measured: binding result

B1: ATDC (Ataxia-Telangiectasia Group D Complementing Gene, also known as TRIM29), endogenous (other, UniProt Q14134 1-588, looked up)
chain: MEAADASRSNGSSPEARDARSPSGPSGSLENGTKADGKDAKTTNGHGGEAAEGKSLGSALKPGEGRSALFAGNEWRRPIIQFVESGDDKNSNYFSMDSMEGKRSPYAGLQLGAAKKPPVTFAEKGELRKSIFSESRKPTVSIMEPGETRRNSYPRADTGLFSRSKSGSEEVLCDSCIGNKQKAVKSCLVCQASFCELHLKPHLEGAAFRDHQLLEPIRDFEARKCPVHGKTMELFCQTDQTCICYLCMFQEHKNHSTVTVEEAKAEKETELSLQKEQLQLKIIEIEDEAEKWQKEKDRIKSFTTNEKAILEQNFRDLVRDLEKQKEEVRAALEQREQDAVDQVKVIMDALDERAKVLHEDKQTREQLHSISDSVLFLQEFGALMSNYSLPPPLPTYHVLLEGEGLGQSLGNFKDDLLNVCMRHVEKMCKADLSRNFIERNHMENGGDHRYVNNYTNSFGGEWSAPDTMKRYSMYLTPKGGVRTSYQPSSPGRFTKETTQKNFNNLYGTKGNYTSRVWEYSSSIQNSDNDLPVVQGSSSFSLKGYPSLMRSQSPKAQPQTWKSGKQTMLSHYRPFYVNKGNGIGSNEAP
notes: Endogenous protein in lysates of human pancreatic cancer cell lines (BxPC3, Panc-1); also called endogenous ATDC
no binding: [1] | [2] | [3]

Reference: patent US20090192112A1 (REGENTS OF THE UNIVERSITY OF MICHIGAN, published 2009)
